{"source": "paper PMC2315677", "key": {"[1]": {"biological_target": "calreticulin (hamster (endogenous in CHO)) (UniProt Q8K3H7)", "sequence (Q8K3H7 18-417)": "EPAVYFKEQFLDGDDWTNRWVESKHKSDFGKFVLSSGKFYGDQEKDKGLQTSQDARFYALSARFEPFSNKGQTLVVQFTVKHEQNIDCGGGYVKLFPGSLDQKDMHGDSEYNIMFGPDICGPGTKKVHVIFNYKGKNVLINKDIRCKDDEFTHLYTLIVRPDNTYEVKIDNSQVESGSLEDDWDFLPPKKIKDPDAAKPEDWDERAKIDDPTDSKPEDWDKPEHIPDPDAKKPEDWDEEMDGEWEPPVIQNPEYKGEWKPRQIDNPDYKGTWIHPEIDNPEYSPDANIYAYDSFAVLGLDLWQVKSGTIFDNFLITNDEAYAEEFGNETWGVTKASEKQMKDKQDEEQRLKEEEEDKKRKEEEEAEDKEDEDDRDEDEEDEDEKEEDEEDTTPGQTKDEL", "assay": "co-IP"}, "[2]": {"biological_target": "calreticulin (hamster (endogenous in CHO)) (UniProt Q8K3H7)", "assay": "co-IP", "remark": "listed apart in the source"}}, "note": "Where two headings read alike, the source gives them in different places."}
{"substance": "influenza hemagglutinin (HA) wild type, transiently expressed in MI8-5 CHO cells (from UniProt P03437 17-566) (natural protein)", "values": [{"measurement": "percent bound", "setting": "[1]", "value": 70, "unit": "%"}, {"measurement": "percent bound", "setting": "[2]", "value": 16, "unit": "%"}]}
